Article PMC9808734 (Nature Communications, 2023)

Molecular target: HLA-A3 on CFPAC parental cells (Homo sapiens, HLA-A3 serotype, allele …, strain)

Row | Binder | binding result
1 | HLAA3_1 (VHH) VHH: EVQLVESGGGLVQPGGSLRLSCAASGFNVQGDGMHWVRQAPGKGLEWVAMVGPYSSYTYYADSVKGRFTISADTSKNTAYLQMNSLRAEDTAVYYCSRYSDGAFDYWGQGTLVTVSS | binds
2 | HLAA3_7 (VHH) VHH: EVQLVESGGGLVQPGGSLRLSCAASGFNVYYYWMHWVRQAPGKGLEWVASIYPDSDNTYYADSVKGRFTISADTSKNTAYLQMNSLRAEDTAVYYCSRGDYYYSYLDYWGQGTLVTVSS | binds
3 | HLAA3_3 (VHH) VHH: EVQLVESGGGLVQPGGSLRLSCAASGFNIYSYAMHWVRQAPGKGLEWVASVAPGSGYTYYADSVKGRFTISADTSKNTAYLQMNSLRAEDTAVYYCSRNKYYTAYYMDYWGQGTLVTVSS | binds
4 | HLAA3_9 (VHH) VHH: EVQLVESGGGLVQPGGSLRLSCAASGFNISTWLIHWVRQAPGKGLEWVAVVYPDSSYTYYADSVKGRFTISADTSKNTAYLQMNSLRAEDTAVYYCSRSWFSKSAMDYWGQGTLVTVSS | binds
5 | HLAA3_11 (VHH) VHH: EVQLVESGGGLVQPGGSLRLSCAASGFNIYSYGIHWVRQAPGKGLEWVAKVSPSSGYTYYADSVKGRFTISADTSKNTAYLQMNSLRAEDTAVYYCSRQYGYPYYFDYWGQGTLVTVSS | binds
6 | HLAA3_2 (VHH) VHH: EVQLVESGGGLVQPGGSLRLSCAASGFNITKYSIHWVRQAPGKGLEWVAMVGPYSSYTYYADSVKGRFTISADTSKNTAYLQMNSLRAEDTAVYYCSRFYSSYAFDVWGQGTLVTVSS | binds
7 | HLAA3_8 (VHH) VHH: EVQLVESGGGLVQPGGSLRLSCAASGFNIYSYYIHWVRQAPGKGLEWVAKIYPDSGYTYYADSVKGRFTISADTSKNTAYLQMNSLRAEDTAVYYCSRSFSRYGYMDYWGQGTLVTVSS | binds

The next lines start with the values.

Row | binding result | Binder
8 | binds | HLAA3_6 (VHH) VHH: EVQLVESGGGLVQPGGSLRLSCAASGFNIFGYYMHWVRQAPGKGLEWVAVVSPGSGYTNYADSVKGRFTISADTSKNTAYLQMNSLRAEDTAVYYCSRALYSAYFAYWGQGTLVTVSS
9 | binds | HLAA3_10 (VHH) VHH: EVQLVESGGGLVQPGGSLRLSCAASGFNVYYSGMHWVRQAPGKGLEWVAKISPDSGSTYYADSVKGRFTISADTSKNTAYLQMNSLRAEDTAVYYCSRDMYSVRSAMDYWGQGTLVTVSS
10 | binds | HLAA3_4 (VHH) VHH: EVQLVESGGGLVQPGGSLRLSCAASGFNIYSYAMHWVRQAPGKGLEWVASFVPGSYATYYADSVKGRFTISADTSKNTAYLQMNSLRAEDTAVYYCSRGYYASYYFDVWGQGTLVTVSS
11 | binds | HLAA3_5 (VHH) VHH: EVQLVESGGGLVQPGGSLRLSCAASGFNLSYYWMHWVRQAPGKGLEWVASIYPDGSYTWYADSVKGRFTISADTSKNTAYLQMNSLRAEDTAVYYCSRGTYFAMDYWGQGTLVTVSS
